# From patent US20180105569A1 (INDIANA UNIVERSITY RESEARCH AND TECHNOLOGY, published 2018)
# Numbered stars: 1 amine (or outer) side, 2 acyl side, 3 side chain; on linkers, the order of the positions; unused ones are H or OH. Square brackets hold non-standard residues; d marks the D form. Side chains are listed from the residue outwards. * marks the point of attachment. γGlu = O=C(O)[C@H](CCC(=O)[*:2])N[*:1]; Palmitoyl = CCCCCCCCCCCCCCCC(=O)*
# T1: GIP receptor (UniProt P48546 22-466, limits assumed)
# T1 sequence (looked up): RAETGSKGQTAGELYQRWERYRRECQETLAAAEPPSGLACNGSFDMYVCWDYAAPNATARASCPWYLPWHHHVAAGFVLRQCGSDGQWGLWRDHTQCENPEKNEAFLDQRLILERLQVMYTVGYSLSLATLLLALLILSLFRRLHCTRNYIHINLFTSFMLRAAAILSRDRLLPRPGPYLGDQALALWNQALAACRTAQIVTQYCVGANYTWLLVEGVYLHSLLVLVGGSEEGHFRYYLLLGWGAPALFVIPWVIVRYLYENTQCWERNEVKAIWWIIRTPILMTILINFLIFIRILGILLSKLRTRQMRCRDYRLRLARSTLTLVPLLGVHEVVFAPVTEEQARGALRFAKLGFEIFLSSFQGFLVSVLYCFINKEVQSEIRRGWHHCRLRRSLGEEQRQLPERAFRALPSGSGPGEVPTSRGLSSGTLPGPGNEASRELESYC
# B1: peptide of SEQ ID NO: 150 (peptide)
# peptide: Ac-[dF]AQGTFTSDK([γGlu-Palmitoyl])SKYLDERAAQDFVQWLLEGGPSSGAPPPS-NH2
# B2: peptide of SEQ ID NO: 149 (peptide)
# peptide: Ac-[dY]AQGTFTSDYSKYLDERAAQDFVQWLLEGGPSSGAPPPSK([γGlu-γGlu-Palmitoyl])G-NH2
# B3: peptide of SEQ ID NO: 142 (peptide)
# peptide: Ac-[dY]ALGTFTSDK([γGlu-Palmitoyl])SKYLDERAAQDFVQWLLEGGPSSGAPPPS-NH2
# B4: peptide of SEQ ID NO: 154 (peptide)
# peptide: Ac-[dH]AEGTFTSDK([γGlu-Palmitoyl])SKYLDERAAQDFVQWLLEAGPSSGAPPPS-NH2
# B5: peptide of SEQ ID NO: 143 (peptide)
# peptide: Ac-[dY]AQGTFTSDK([γGlu-Palmitoyl])SKYLDERAAQDFVQWLLDAGPSSGAPPPS-NH2
# B6: peptide of SEQ ID NO: 152 (peptide)
# peptide: Ac-[dH]AQGTFTSDYSKYLDERAAQDFVQWLLEGGPSSGAPPPSK([γGlu-γGlu-Palmitoyl])G-NH2
# B7: peptide of SEQ ID NO: 146 (peptide)
# peptide: Ac-[dY]AQGTFTSDK([γGlu-Palmitoyl])SKYLDERAAQDFVQWLLEAGPSSGAPPPS-NH2
# SMILES: CCCCCCCCCCCCCCCC(=O)N[C@@H](CCC(=O)NCCCC[C@H](NC(=O)[C@H](CC(=O)O)NC(=O)[C@H](CO)NC(=O)[C@@H](NC(=O)[C@H](Cc1ccccc1)NC(=O)[C@@H](NC(=O)CNC(=O)[C@H](CCC(N)=O)NC(=O)[C@H](C)NC(=O)[C@@H](Cc1ccc(O)cc1)NC(C)=O)[C@@H](C)O)[C@@H](C)O)C(=O)N[C@@H](CO)C(=O)N[C@@H](CCCCN)C(=O)N[C@@H](Cc1ccc(O)cc1)C(=O)N[C@@H](CC(C)C)C(=O)N[C@@H](CC(=O)O)C(=O)N[C@@H](CCC(=O)O)C(=O)N[C@@H](CCCNC(=N)N)C(=O)N[C@@H](C)C(=O)N[C@@H](C)C(=O)N[C@@H](CCC(N)=O)C(=O)N[C@@H](CC(=O)O)C(=O)N[C@@H](Cc1ccccc1)C(=O)N[C@H](C(=O)N[C@@H](CCC(N)=O)C(=O)N[C@@H](Cc1c[nH]c2ccccc12)C(=O)N[C@@H](CC(C)C)C(=O)N[C@@H](CC(C)C)C(=O)N[C@@H](CCC(=O)O)C(=O)N[C@@H](C)C(=O)NCC(=O)N1CCC[C@H]1C(=O)N[C@@H](CO)C(=O)N[C@@H](CO)C(=O)NCC(=O)N[C@@H](C)C(=O)N1CCC[C@H]1C(=O)N1CCC[C@H]1C(=O)N1CCC[C@H]1C(=O)N[C@@H](CO)C(N)=O)C(C)C)C(=O)O
# B8: peptide of SEQ ID NO: 153 (peptide)
# peptide: Ac-[dY]AQGTFTSDK([γGlu-Palmitoyl])SKYLDERAAQDFVQWLLDLGPSSGAPPPS-NH2
# Biological target: T2, GLP-1 receptor (UniProt P43220 24-463, limits assumed)
# Assay: cell-based or functional assay
row,Binder,"EC50 at GLP-1 Receptor (cAMP luciferase reporter, HEK293) [pM]"
1,B1,2
2,B2,2
3,B3,5
4,B4,4

# Biological target: T3, glucagon receptor (UniProt P47871 26-477, limits assumed)
# Assay: cell-based or functional assay
# T3 sequence (P47871 26-477 limits assumed): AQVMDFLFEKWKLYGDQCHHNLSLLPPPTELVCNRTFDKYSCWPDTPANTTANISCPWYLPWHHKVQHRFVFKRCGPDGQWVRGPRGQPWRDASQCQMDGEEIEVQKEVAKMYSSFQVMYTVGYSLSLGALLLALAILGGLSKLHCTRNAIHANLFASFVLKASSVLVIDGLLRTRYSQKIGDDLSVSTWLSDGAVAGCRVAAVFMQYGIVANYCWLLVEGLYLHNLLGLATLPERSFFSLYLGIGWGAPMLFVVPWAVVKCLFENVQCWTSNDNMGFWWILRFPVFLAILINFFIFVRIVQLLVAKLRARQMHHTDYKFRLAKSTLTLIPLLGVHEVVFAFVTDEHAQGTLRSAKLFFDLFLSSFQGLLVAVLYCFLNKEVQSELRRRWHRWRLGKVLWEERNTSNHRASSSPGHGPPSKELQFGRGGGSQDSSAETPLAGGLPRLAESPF
row,Binder,"EC50 at Glucagon Receptor (cAMP luciferase reporter, HEK293) [pM]"
1,B1,14
2,B2,12
3,B3,103
4,B4,847

# Biological target: T1, GIP receptor
# Assay: cell-based or functional assay
row,Binder,"EC50 at GIP Receptor (cAMP luciferase reporter, HEK293) [pM]"
1,B1,11
2,B2,8
3,B3,2
4,B4,24

# Biological target: T2, GLP-1 receptor
# Assay: cell-based or functional assay
# Remark: another data set of the same source
row,Binder,"EC50 at GLP-1 Receptor (cAMP luciferase reporter, HEK293) [pM]"
1,B5,3
2,B6,3
3,B7,7
4,B8,17

# Biological target: T3, glucagon receptor
# Assay: cell-based or functional assay
# Remark: another data set of the same source
row,Binder,"EC50 at Glucagon Receptor (cAMP luciferase reporter, HEK293) [pM]"
1,B5,4
2,B6,3
3,B7,9
4,B8,21

# Biological target: T1, GIP receptor
# Assay: cell-based or functional assay
# Remark: another data set of the same source
row,Binder,"EC50 at GIP Receptor (cAMP luciferase reporter, HEK293) [pM]"
1,B5,3
2,B6,17
3,B7,6
4,B8,18
